Several values for one entry are separate records, joined by “and”; a condition that tells them apart may be missing. Equal values may be shown once.
Columns and labels:
human IL-6 [1] = molecular target: T1, human IL-6 (Homo sapiens, UniProt P05231); assay: IL-6 neutralizing bioassay, B9 cell proliferation ([3H]thymidine); type: cell-based; settings: B9 cells; relative to 68F2 average IC50
T1 construct: host or cells: IL-6 added from outside to murine 7TD1 hybridoma cells
Description: The in vitro efficacy of clones 129D3, 68F2, 61H7, 133A9, 133H2, 133E5 and 132E7 were determined using a cell-based neutralizing bioassay using the B9 cell line, essentially as described in Helle et al. 1988, Eur. J. Immunol 18; 1535-1540. B9 cells are derived from the murine B cell hybridoma cell line B13.29, which require IL-6 for survival and proliferation and respond to very low concentrations of human IL-6. […] B9 cells were seeded in IL-6-free medium at 5000 cells/200 microl in flat-bottom wells in the presence of IL-6, with and without antibodies. Proliferation was measured by a [3H]thymidine pulse at 64-72 h.

[2] = molecular target: biotinylated (prokaryotic) IL-6 (Homo sapiens, UniProt P05231); assay: Surface plasmon resonance (Biacore), biotinylated IL-6 captured on streptavidin sensor chip; type: binding; settings: purified Fab
Description: (§1) The binding kinetics of IL-6-specific Fabs that were able to cross-compete with the B-E8 antibody was assessed using surface plasmon resonance (Biacore). Specifically, biotinylated (prokaryotic) IL-6 was captured on a streptavidin biacore sensor chip (CM5-SA) and different concentrations of purified Fabs were injected during 3 minutes following by a 5 minute wash with buffer. From the washing phase the off-rate (kd) was determined, while from the injection phase the on-rate (ka) was calculated using the concentration and off-rate as parameters. […] The binding kinetics of antagonistic purified Fabs (Table 3) and periplasmic fractions of Fab-expressing bacteria (Table 4) were also evaluated by surface plasmon resonance (Biacore) using both bacterially and eukaryotically produced human IL-6 directly coated on a CM5 chip. The Fabs tested had off-rates between 6×10^−4 and 2×10^−5 s^−1.

[3] = molecular target: T2, eukaryotically produced human IL-6 (Homo sapiens, UniProt P05231); assay: Surface plasmon resonance (Biacore), eukaryotically produced human IL-6 coated on CM5 chip; type: binding; settings: purified chain-shuffled Fabs
T2 construct: purchased Humanzyme HZ-1044; host or cells: Human Embryonic kidney cells
Description: as §1
(§2) VL chain shuffling was used to improve the affinity of the Fabs 17F10, 18C7, 18C9, 18C11, 20A4, 29B11, 16D2 and 28A6. In this method, the heavy chain of these clones (as a VHCH1 fragment) was reintroduced into the primary phagemid-light chain library (see Example 1). Affinity selections were performed to select for chain shuffled Fabs with an improved affinity for IL-6. The binding kinetics of chain shuffled Fabs were evaluated by surface plasmon resonance (Biacore) using both bacterially and eukaryotically produced human IL-6, and cynomolgus monkey IL-6 (Tables 5-7). The VH and VL amino acid sequences of exemplary IL-6-specific Fabs selected by the VL chain shuffling method are set forth in Table 14 below.
(§3) VH chain shuffling was also used to improve the affinity of the Fab 24D10. In this method, the light chain of 24D10 was reintroduced into the primary phagemid-heavy chain library (see Example 1) and selected using an off-rate assay. In this type of selection, the phage were allowed to bind to antigen on a substrate for 1.5 to 2 hours. At round 2, after 15 washes with PBS-Tween, an additional wash was performed with the presence of excess soluble IL-6. […] This procedure avoids re-binding of such phage to the coated target. […] The binding kinetics of chain shuffled Fabs and the benchmark antibodies, BE8 and GL18, were evaluated by surface plasmon resonance (Biacore) using both bacterially and eukaryotically produced human IL-6 (Tables 8 and 9). The VH and VL amino acid sequences of exemplary IL-6-specific Fabs selected by the VH chain shuffling method are set forth in Table 14 below. […]

[4] = molecular target: T3, bacterially produced human IL-6 (Homo sapiens, UniProt P05231); assay: Surface plasmon resonance (Biacore), bacterially produced human IL-6 coated on CM5 chip; type: binding; settings: purified chain-shuffled Fabs
T3 construct: His
Description: as §1, §2, §3

cynomolgus monkey IL-6 = molecular target: T4, cynomolgus monkey IL-6 (Macaca fascicularis, UniProt P79341); assay: Surface plasmon resonance (Biacore), cynomolgus monkey IL-6; type: binding; settings: purified chain-shuffled Fabs
T4 construct: His
Description: as §2

human IL-6 [5] = molecular target: T1, human IL-6; assay: IL-6 neutralizing bioassay, 7TD1 cell proliferation; type: cell-based; settings: relative to 68F2
Description: The in vitro efficacy of clones 133E5, 133A9, 133H2, 111B1, 104C1, 129D3, 68F2, 61H7, were also determined using a cell-based neutralizing bioassay using the 7TD1 cell line, essentially as described in Van Snick et al. PNAS; 83, :9679 (1986), which is hereby incorporated by reference in its entirety. 7TD1 cells are a murine hybridoma cell line formed by fusion of the mouse myeloma cell line Sp2/0-Ag14 with spleen cells from a C57BL/6 mouse immunized with Escherichia coli lipopolysaccharides three days before fusion. The 7TD1 cell line is dependent on IL-6 for its growth and IL-6 withdrawal leads to cell death by apoptosis.
Briefly, 7TD1 cells (7.10E3) were incubated for 2-4 h in RPMI1640 medium+10% FCS before addition of IL-6 (75 pg/ml final concentration) in microtiter plates (200 ul final volume). The cells were incubated 3 days at 37C, before washing with PBS and addition of 60 ul of substrate solution (p-nitrophenyl-N-acetyl-β-D-glucosaminide (Sigma N-9376); 7.5 mM substrate in 0.05 M NaCitrate pH 5; 0.25 vol % triton X-100) for 4 h. The enzymatic reaction was stopped with 90 ul of stop solution (100 mM glycine+10 mM EDTA pH 10.4) and OD at 405 nm measured.
The VH and VL of the germlined versions of 68F2 were recloned in pUPE Heavy Chain and Light Chain expression vectors, respectively, for transient expression of full-length IgG1 antibodies. After transient expression in HEK293E cells, IgG1 antibodies were purified with protein A and quantified by measurement of OD280. Table 19 below summarizes the production levels of the germlined derivatives together with the levels of the 68F2 parental antibody. Potencies (in pM) were also measured in a 7TD1 based proliferation assay for each antibody.

T1 sequence (P05231 30-212): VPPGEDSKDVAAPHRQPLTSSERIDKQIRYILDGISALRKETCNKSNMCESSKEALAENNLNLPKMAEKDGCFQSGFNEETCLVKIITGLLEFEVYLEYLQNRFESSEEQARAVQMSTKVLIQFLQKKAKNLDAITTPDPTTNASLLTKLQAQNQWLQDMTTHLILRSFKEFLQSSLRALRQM
Sequence of biotinylated (prokaryotic) IL-6 (P05231 30-212): as above
T4 sequence (P79341 28-212): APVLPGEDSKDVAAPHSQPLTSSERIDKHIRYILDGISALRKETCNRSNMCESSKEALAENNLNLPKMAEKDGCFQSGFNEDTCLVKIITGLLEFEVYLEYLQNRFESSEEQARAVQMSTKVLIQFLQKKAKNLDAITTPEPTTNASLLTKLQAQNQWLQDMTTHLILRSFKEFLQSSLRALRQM
T2 sequence (P05231 30-212): as the sequence (P05231 30-212) above
T3 sequence (P05231 30-212): as above

| Rel. Potency (human IL-6 [1]) | Molecule | Rel. Potency (human IL-6 [5]; Exp 22.06 (7TD1)) | Rel. Potency (human IL-6 [5]; Exp 29.06 (7TD1)) | other results |
| --- | --- | --- | --- | --- |
| 0.4 | 61H7 (12.8) (antibody, V domains shown) VH: EVQLVESGGGLVQPGGSLRLSCAASGFTFSSYRMYWVRQPPGKGLEWVSAISAGGGSTYYGDSVKGRFTISRDNAKNTVYLQMNSLKPEDTAVYYCANRAGWGMGDYWGQGTQVTVSS VL: QTVVTQEPSLSVSPGGTVTLTCGLSSGSVTASNYPGWFQQTPGQAPRALIYSTNDRHSGVPSRFSGSISGNKAALTITGAQPEDEADYYCALDIGDITEFGGGTHLTVLG | – | – | – |
| 0.5 | 61H7 (A8.11) (antibody, V domains shown) VH: EVQLVESGGGLVQPGGSLRLSCAASGFTFSSYRMYWVRQPPGKGLEWVSAISAGGGSTYYGDSVKGRFTISRDNAKNTVYLQMNSLKPEDTAVYYCANRAGWGMGDYWGQGTQVTVSS VL: QTVVTQEPSLSVSPGGTVTLTCGLSSGSVTASNYPGWFQQTPGQAPRALIYSTNDRHSGVPSRFSGSISGNKAALTITGAQPEDEADYYCALDIGDITEFGGGTHLTVLG | – | – | – |
| – | 18C7: antagonistic IL-6-specific Fab clone from immunized llama (antibody, listed as Lama glama, V domains shown) VH: EVQLVESGPGLVKPSQTLSLTCTVSGGSITASFDAWSWIRQPPGKGLEWMGVIAYDGSTYYSPSLKSRTSISRDTSKNQFSLQLSSVTPEDTAVYYCARKSSWLIGYGMDYWGKGTLVTVSS VL: QAGLTQPSALSVTLGQTAKITCQGGSLGSSYAHWYQQKPGQAPVLVIYDDDSRPSGIPERFSGSSSGGRATLTISGAQAEDEGDYYCQSADSSGNAAVFGGGTHLTVLG | – | – | KA [2]: 5.7e+07 M⁻¹; Rmax [2]: 43.9 RU; ka [2]: 105000 M⁻¹ s⁻¹; kd [2]: 0.00185 s⁻¹; Koff eukIL-6 [3]: 0.001 s⁻¹ and 0.00082 s⁻¹; Koff HIS-huIL-6 [4]: 0.0011 s⁻¹; Koff HIS-cyIL-6 (cynomolgus monkey IL-6): 0.00063 s⁻¹ and 0.00069 s⁻¹ |
| – | 129D3 (17.06) (antibody, V domains shown) VH: EVQLQESGPGLVKPSQTLSLTCTVSGGSITSRYYAWSWIRQPPGKGLEWIGVIDYDGDTYYSPSLKSRVSISWDTSKNQFSLKLSSVTPADTAVYYCARDPDVVTGFHYDYWGQGTMVTVSS VL: QSALTQPPSVSGTPGQSVTISCAGANNDIGTYAYVSWYQQLPGTAPKLMIYKVTTRASGIPDRFSGSKSGNTASLTISGLQAEDEADYYCASYRNFNNAVFGTGTKLTVL | 1.02 | – | – |
| – | 129F2 (17.06) (antibody, V domains shown) VH: EVQLQESGPGLVKPSQTLSLTCTVSGGSITSRYYAWSWIRQPPGKGLEWIGVIDYDGDTYYSPSLKSRVTISWDTSKNQFSLKLSSVTAEDTAVYYCARDPDVVTGFHYDYWGQGTMVTVSS VL: QSALTQPPSVSGTPGQTVTISCAGANNDIGTYAYVSWYQQLPGTAPKLMIYKVTTRASGIPDRFSGSKSGNTASLTISGLQSEDEADYYCASYRNFNNAVFGGGTKLTVL | 1.14 | – | – |
| – | 127E2 (17.06) (antibody, V domains shown) VH: EVQLQESGPGLVKPSQTLSLTCTVSGGSITTRYYAWSWIRQPPGKGLEWIGVIDYDGDTYYSPSLKSRVTISVDTSKNQFSLQLSSVTAEDTAVYYCARDPDVVTGFHYDYWGQGTQVTVSS VL: QSALTQPPSVSGSPGQTVTISCAGANNDIGTYAYVSWYQQPPGTAPKLLIYKVTTRASGVPDRFSGSKSGNTASLTISGLQAEDEADYYCASYRNFNNAVFGGGTHLTVL | – | 0.37 | – |
| – | 127E2 (24.06) (antibody, V domains shown) VH: EVQLQESGPGLVKPSQTLSLTCTVSGGSITTRYYAWSWIRQPPGKGLEWIGVIDYDGDTYYSPSLKSRVTISVDTSKNQFSLQLSSVTAEDTAVYYCARDPDVVTGFHYDYWGQGTQVTVSS VL: QSALTQPPSVSGSPGQTVTISCAGANNDIGTYAYVSWYQQPPGTAPKLLIYKVTTRASGVPDRFSGSKSGNTASLTISGLQAEDEADYYCASYRNFNNAVFGGGTHLTVL | 0.58 | – | – |
| 0.8 | 68F2 (12.9) (antibody, V domains shown) VH: EVQLQESGPGLVKPSQTLSLTCTVSGGSITTRYYAWSWIRQPPGKGLEWMGVIDYDGDTYYSPSLKSRTSISWDTSKNQFSLQLSSVTPEDTAVYYCARDPDVVTGFHYDYWGQGTQVTVSS VL: QSALTQPPLVSGTPGQTVTISCAGANNDIGTYAYVSWYQQLPGTAPKLLIYKVTTRASGIPSRFSGSKSGNTASLTISGLQSEDEADYYCASYRNFNNAVFGRGTHLTVLG | – | – | – |
| 1.3 | 68F2 (A8.10) (antibody, V domains shown) VH: EVQLQESGPGLVKPSQTLSLTCTVSGGSITTRYYAWSWIRQPPGKGLEWMGVIDYDGDTYYSPSLKSRTSISWDTSKNQFSLQLSSVTPEDTAVYYCARDPDVVTGFHYDYWGQGTQVTVSS VL: QSALTQPPLVSGTPGQTVTISCAGANNDIGTYAYVSWYQQLPGTAPKLLIYKVTTRASGIPSRFSGSKSGNTASLTISGLQSEDEADYYCASYRNFNNAVFGRGTHLTVLG | – | – | – |
| – | 68F2 (Large batch) (antibody, V domains shown) VH: EVQLQESGPGLVKPSQTLSLTCTVSGGSITTRYYAWSWIRQPPGKGLEWMGVIDYDGDTYYSPSLKSRTSISWDTSKNQFSLQLSSVTPEDTAVYYCARDPDVVTGFHYDYWGQGTQVTVSS VL: QSALTQPPLVSGTPGQTVTISCAGANNDIGTYAYVSWYQQLPGTAPKLLIYKVTTRASGIPSRFSGSKSGNTASLTISGLQSEDEADYYCASYRNFNNAVFGRGTHLTVLG | – | 0.43 | – |
| – | 68F2 (#12.9) (antibody, V domains shown) VH: EVQLQESGPGLVKPSQTLSLTCTVSGGSITTRYYAWSWIRQPPGKGLEWMGVIDYDGDTYYSPSLKSRTSISWDTSKNQFSLQLSSVTPEDTAVYYCARDPDVVTGFHYDYWGQGTQVTVSS VL: QSALTQPPLVSGTPGQTVTISCAGANNDIGTYAYVSWYQQLPGTAPKLLIYKVTTRASGIPSRFSGSKSGNTASLTISGLQSEDEADYYCASYRNFNNAVFGRGTHLTVLG | – | 1.08 | Rel. Potency (human IL-6 [5]; Exp 7.07 (7TD1)): 0.93 |
| – | 128G3 (17.06) (antibody, V domains shown) VH: EVQLQESGPGLVKPSQTLSLTCTVSGGSITTRYYAWSWIRQPPGKGLEWIGVIDYDGDTYYSPSLKSRTTISVDTSKNQFSLKLSSVTPEDTAVYYCARDPDVVTGFHYDYWGQGTMVTVSS VL: QSALTQPPSVSGAPGQTVTISCAGANNDIGTYAYVSWYQQLPGTAPKLLIYKVTTRASGVPDRFSGSKSGNTASLAISGLQAEDEADYYCASYRNFNNAVFGGGTHLTVL | 0.60 | 0.52 | – |

— patent US11827701B2, “IL-6 binding molecules” (argenx BV, priority 2012, dated 2023)
